Assay: immunofluorescence confocal microscopy, HEK293
Conditions: glycan lost; control: wt hENT1 (HA- or 3xFLAG-tagged)

B1: human equilibrative nucleoside transporter 1 (hENT1): N48Q (protein)
parent chain: MTTSHQPQDRYKAVWLIFFMLGLGTLLPWNFFMTATQYFTNRLDMSQNVSLVTAELSKDAQASAAPAAPLPERNSLSAIFNNVMTLCAMLPLLLFTYLNSFLHQRIPQSVRILGSLVAILLVFLITAILVKVQLDALPFFVITMIKIVLINSFGAILQGSLFGLAGLLPASYTAPIMSGQGLAGFFASVAMICAIASGSELSESAFGYFITACAVIILTIICYLGLPRLEFYRYYQQLKLEGPGEQETKLDLISKGEEPRAGKEESGVSVSNSQPTNESHSIKAILKNISVLAFSVCFIFTITIGMFPAVTVEVKSSIAGSSTWERYFIPVSCFLTFNIFDWLGRSLTAVFMWPGKDSRWLPSLVLARLVFVPLLLLCNIKPRRYLTVVFEHDAWFIFFMAAFAFSNGYLASLCMCFGPKKVKPAEAETAGAIMAFFLCLGLALGAVFSFLFRAIV
- localisation_or_trafficking: decreases
